B1: RNA-binding E3 ubiquitin-protein ligase MEX3C, residues 325 to 391; numbered along this chain, Q5U5Q3 (parent)
chain: GQTTVQVRVPYRVVGLVVGPKGATIKRIQQQTHTYIVTPSRDKEPVFEVTGMPENVDRAREEIEMHI

Variants of: B1
Experiment: abundance fitness (aPCA) (normalised: wild type 0, dead -1); higher = more abundant; growth selection in yeast, the domain comes from the species named
Settings: Homo sapiens

Abundance fitness of substitutions, site by site:
P20: Y -0.266, V -0.449, S -0.408, T -0.472, W -0.625
T34: Y -1.07, W -0.947, A -0.877, I -0.866, L -0.689, R -0.641, P -0.867, S -0.802, K -0.34, C -0.423, D -0.503, G -0.828, N -0.791, M -0.788, Q -1.01, F -0.969
R41: A 0.017, F -0.343, C -0.067, E -0.021, D 0.048
A23: N -0.568, R 0.063, L -0.293, H -0.258, Q 0.003, I -0.332, G -0.443, S -0.08, T -0.012, M -0.027, E -0.082, V -0.477, D -0.55, C -0.352, F -0.868, W -0.553
G22: T -0.68, E -0.389, K -0.424, M -0.274, Q -0.189, H -0.769, P -0.836, S -0.522, W -0.687, F -0.738, D -0.543, R -0.504, L -0.587, A -0.489, C -0.712, N -0.631
H33: Q 0.088, K 0.016, L -0.582, M -0.213, A -0.182, W -1.15, E -0.267, N 0.171, G 0.081, T -0.744, C -0.426, P -0.845, F -0.438, R -0.165, D 0.184, Y -0.396
R27: D -0.656, I -0.901, K 0.111, T -0.38, C -0.832, Q -0.399, P -0.834, G -0.591, W -0.241, E -0.512, S -0.465, A -0.37, L -0.665, N -0.59, V -0.577, M -0.346, F -0.755
Y35: R 0.2, N 0.1, E -0.041, K 0.284, H 0.164, L -0.046, T 0.307, M -0.044, D -0.283, P -0.773, I -0.069, W -0.135, F -0.02, Q 0.206, A -0.044, C -0.132, G -0.511, S 0.15, V 0.129
Q29: F -0.882, I -0.736, R -0.549, C -0.392, E -0.241, A 0.106, T -0.619, M 0.205, V -0.746, S -0.179, G -0.308, P -0.765, W -0.629, K -0.81, D -0.34
P39: H -0.402, I -0.57, R -0.276, E -0.424, M -0.502, K -0.149, W -0.58, Y -0.328, V -0.476, F -0.286, N -0.234, G -0.467, D -0.383, A -0.497, T -0.409, Q -0.477, C -0.221
I25: A -0.811, H -0.62, T -0.75, Y -0.502, F -0.905, L -0.165, C -0.58, E -0.786, G -0.68, R -0.39, P -0.64, K -0.754, M -0.571
T24: E -0.304, I -0.792, V -0.517, M -0.786, P -1.02, H -0.28, C -0.574, G -0.371, R -0.366, K -0.346, L -0.875, A -0.53, W -0.553, D -0.67, N 0.171, Y -0.589, S -0.731, Q -0.818
I28: E -0.952, W -1.2, L -0.559, Q -0.576, M -0.639, C -0.874, F -0.467, G -0.883, A -0.695, V -0.496, R -0.419, T -0.288, H -0.751, P -0.376
Q31: R 0.036, K 0.035, C -0.69, A -0.272, D -0.001, V -0.109, F -0.452, E 0.252, T -0.261, L -0.128, M 0.048, I -0.18, P -0.65, S -0.319, N -0.048, W -0.966, G -0.57
K26: Y -0.944, R -0.126, D -0.417, F -0.786, A -0.119, C -0.911, L -0.655, M -0.212, S -0.483, Q -0.343, T -0.61, P -0.56, W -0.722, N -0.491, V -0.747, H -0.66, G -0.769
T32: H -0.488, C -0.578, A -0.712, Q -0.669, M -0.653, R -0.938, D -0.575, L -0.734, W -0.916, P -0.654, E -0.707, I -0.944, Y -0.777, V -0.682
T38: V -0.174, A -0.015, I -0.177, C 0.005, G 0.005, P -0.046, D -0.275, H -0.587, R -0.403, Y 0.017, K -0.333, S -0.01, F -0.516, W -0.384, M -0.271, N -0.347, L -0.268
S40: N 0.032, Q -0.033, K -0.072, C -0.332, M -0.016, L -0.133, E -0.029, H -0.352, P 0.08, W -0.215, T -0.081, D 0.138, A 0.021, G 0.03, V -0.229, Y -0.137, F -0.349, I -0.34
Q30: W -0.566, H -0.23, V -0.536, Y -0.664, L -0.505, P -0.899, S -0.435, D -0.053, M -0.377, C -0.805, R -0.126, K -0.016, E -0.022, G -0.609, F -0.773, T -0.183, A -0.01
K21: E -0.099, T -0.596, R -0.196, N -0.113, D -0.19, I -0.53, S -0.233, P -0.884, A -0.186, M -0.031, H -0.273, W -0.458, L -0.183, C -0.247, G -0.04
V37: D -0.377, T 0.136, K 0.216, A -0.23, R 0.138, P -0.724, M -0.095, N -0.426, F -1, I -0.089, W -0.811, Y -0.629, S -0.027, Q -0.094, H -0.582, E -0.422, C -0.205, L -0.315
I36: T -0.899, F -0.941, E -1.04, Q -0.801, K -0.729, N -0.21, A -0.555, P -0.736, V -0.471, M -0.885, R -0.715, G -0.586, W -0.736, S -0.435
